Values of other authors in article PMC3382066.
pKd, pKi: −log10 of the molar value. “And” between values parts separate entries of the source, which are not always exact repeats. Identical values can stand only once. Values belong to the substance of their own block, whether it stands above or below them.

Tests used:
[1] = molecular target: smooth muscle myosin truncated fragment (UniProt P35749)
calmodulin = calmodulin (UniProt P0DP23)
[2] = molecular target: smooth muscle myosin (unphosphorylated) (Gallus gallus) (UniProt P10587)
UniProt P10587, sequence (P10587 2-1979): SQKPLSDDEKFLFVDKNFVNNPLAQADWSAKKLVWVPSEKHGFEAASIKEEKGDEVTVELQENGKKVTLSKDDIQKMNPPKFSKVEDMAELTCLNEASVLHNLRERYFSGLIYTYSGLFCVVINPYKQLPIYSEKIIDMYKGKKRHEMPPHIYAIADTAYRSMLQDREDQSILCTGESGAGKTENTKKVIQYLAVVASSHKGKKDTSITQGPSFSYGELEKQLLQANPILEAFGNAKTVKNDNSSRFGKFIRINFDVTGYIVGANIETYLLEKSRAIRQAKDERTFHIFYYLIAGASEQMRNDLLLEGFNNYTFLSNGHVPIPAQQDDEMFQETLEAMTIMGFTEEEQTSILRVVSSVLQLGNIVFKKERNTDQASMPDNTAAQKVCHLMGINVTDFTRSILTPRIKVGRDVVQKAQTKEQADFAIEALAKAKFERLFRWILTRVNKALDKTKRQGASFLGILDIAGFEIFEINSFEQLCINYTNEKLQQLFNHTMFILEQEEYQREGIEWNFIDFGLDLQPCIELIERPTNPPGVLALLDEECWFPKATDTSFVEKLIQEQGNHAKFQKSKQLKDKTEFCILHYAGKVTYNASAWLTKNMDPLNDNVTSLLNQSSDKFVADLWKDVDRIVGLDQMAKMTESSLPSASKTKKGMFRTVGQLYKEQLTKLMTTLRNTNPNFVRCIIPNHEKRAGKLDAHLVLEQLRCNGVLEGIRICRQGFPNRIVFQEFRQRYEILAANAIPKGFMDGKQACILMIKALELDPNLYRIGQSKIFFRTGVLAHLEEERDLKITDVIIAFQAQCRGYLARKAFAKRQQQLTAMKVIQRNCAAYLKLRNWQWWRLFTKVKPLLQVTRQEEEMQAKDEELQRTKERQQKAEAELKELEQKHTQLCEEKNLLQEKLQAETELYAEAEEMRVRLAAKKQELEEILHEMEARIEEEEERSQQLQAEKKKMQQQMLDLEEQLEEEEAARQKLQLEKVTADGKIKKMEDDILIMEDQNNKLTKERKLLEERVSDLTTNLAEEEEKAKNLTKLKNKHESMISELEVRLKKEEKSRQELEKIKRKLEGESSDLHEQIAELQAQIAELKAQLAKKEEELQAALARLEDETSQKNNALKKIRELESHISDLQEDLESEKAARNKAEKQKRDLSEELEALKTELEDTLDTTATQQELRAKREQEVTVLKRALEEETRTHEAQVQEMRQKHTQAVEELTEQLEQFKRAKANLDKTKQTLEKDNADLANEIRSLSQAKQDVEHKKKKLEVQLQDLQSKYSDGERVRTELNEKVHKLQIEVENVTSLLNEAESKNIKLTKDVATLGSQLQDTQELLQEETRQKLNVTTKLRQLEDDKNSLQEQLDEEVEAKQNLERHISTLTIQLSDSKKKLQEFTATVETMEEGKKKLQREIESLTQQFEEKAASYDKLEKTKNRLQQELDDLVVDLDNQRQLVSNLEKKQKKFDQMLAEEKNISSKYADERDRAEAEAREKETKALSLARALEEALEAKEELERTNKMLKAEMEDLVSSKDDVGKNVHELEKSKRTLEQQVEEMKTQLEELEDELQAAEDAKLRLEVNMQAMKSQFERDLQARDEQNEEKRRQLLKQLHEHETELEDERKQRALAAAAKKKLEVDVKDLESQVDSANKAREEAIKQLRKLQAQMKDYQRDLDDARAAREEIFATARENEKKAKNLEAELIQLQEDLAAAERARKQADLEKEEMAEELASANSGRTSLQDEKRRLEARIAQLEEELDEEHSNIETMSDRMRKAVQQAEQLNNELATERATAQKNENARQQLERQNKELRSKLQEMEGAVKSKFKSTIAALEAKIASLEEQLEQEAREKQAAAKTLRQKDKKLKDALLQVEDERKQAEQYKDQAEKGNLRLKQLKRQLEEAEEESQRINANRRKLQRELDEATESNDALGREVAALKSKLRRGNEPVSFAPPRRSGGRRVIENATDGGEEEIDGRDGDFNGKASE

UniProt P35749, sequence (P35749 1-1175): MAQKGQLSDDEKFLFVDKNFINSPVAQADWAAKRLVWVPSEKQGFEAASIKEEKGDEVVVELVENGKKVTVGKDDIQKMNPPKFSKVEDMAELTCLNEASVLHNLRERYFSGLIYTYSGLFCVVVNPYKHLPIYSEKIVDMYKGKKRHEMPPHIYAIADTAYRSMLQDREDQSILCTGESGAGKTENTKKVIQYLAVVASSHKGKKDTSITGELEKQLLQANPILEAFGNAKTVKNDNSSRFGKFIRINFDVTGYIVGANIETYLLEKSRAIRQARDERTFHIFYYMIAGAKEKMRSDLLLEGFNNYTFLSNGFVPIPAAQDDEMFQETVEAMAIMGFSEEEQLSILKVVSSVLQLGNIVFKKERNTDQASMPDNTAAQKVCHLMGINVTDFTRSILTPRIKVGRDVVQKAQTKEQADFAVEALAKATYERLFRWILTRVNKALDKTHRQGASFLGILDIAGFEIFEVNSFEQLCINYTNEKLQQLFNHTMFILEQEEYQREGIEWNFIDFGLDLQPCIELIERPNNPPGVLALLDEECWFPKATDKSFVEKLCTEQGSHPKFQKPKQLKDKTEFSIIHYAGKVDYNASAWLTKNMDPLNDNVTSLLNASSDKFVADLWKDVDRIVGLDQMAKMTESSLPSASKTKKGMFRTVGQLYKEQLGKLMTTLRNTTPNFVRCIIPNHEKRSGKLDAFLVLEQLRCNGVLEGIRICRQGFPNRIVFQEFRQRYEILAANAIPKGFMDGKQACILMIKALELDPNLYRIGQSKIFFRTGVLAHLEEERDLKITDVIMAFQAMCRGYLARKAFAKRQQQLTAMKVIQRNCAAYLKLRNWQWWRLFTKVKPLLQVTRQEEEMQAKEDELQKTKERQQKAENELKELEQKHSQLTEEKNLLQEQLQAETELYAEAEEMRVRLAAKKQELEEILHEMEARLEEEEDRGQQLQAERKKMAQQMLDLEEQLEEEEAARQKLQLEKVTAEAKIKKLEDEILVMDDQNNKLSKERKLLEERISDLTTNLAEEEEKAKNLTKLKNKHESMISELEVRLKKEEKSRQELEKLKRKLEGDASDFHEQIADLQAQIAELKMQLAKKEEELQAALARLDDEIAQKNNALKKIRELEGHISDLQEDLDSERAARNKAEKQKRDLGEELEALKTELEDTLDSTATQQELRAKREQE
MLCK, sequence (P11799 935-1906): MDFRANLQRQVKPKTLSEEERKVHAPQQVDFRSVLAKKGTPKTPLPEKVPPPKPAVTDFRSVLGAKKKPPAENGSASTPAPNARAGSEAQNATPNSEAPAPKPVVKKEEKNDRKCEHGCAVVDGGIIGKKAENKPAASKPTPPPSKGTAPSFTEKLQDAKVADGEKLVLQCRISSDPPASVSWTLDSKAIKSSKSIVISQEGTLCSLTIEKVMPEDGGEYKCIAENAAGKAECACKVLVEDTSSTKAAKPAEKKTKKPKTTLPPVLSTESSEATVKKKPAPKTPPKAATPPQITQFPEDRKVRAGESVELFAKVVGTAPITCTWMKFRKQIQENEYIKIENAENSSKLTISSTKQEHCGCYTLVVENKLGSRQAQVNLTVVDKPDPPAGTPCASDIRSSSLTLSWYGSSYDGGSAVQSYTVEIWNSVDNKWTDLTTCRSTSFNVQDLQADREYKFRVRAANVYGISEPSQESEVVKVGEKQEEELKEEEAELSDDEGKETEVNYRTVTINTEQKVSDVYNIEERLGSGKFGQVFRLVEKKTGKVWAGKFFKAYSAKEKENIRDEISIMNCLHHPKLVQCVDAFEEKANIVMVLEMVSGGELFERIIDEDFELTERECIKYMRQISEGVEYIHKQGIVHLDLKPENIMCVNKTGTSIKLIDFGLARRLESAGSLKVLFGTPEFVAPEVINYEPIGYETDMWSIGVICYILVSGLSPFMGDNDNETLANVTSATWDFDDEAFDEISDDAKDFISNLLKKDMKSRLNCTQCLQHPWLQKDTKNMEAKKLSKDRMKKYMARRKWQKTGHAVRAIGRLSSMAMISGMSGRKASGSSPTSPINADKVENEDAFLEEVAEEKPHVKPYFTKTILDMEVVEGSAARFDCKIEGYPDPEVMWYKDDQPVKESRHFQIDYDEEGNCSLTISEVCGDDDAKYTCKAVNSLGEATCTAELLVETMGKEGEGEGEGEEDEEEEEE

pKi [1]: 4.40 and 4.70
Substance: telokin telokin (from UniProt Q15746)

pKd (calmodulin): 5.30
Substance: MLCK N-terminal actin-binding region (from UniProt Q15746)

pKd [2]: 6.10
Substance: MLCK (from UniProt P11799)
